Sequences and labels used below:
B1: SYVN1-EGFP (natural protein, mouse, UniProt Q9DBY1 1-612, looked up)
chain: MFRTAVMMAASLALTGAVVAHAYYLKHQFYPTVVYLTKSSPSMAVLYIQAFVLVFLLGKVMGKVFFGQLRAAEMEHLLERSWYAVTETCLAFTVFRDDFSPRFVALFTLLLFLKCFHWLAEDRVDFMERSPNISWLFHCRIVSLMFLLGILDFLFVSHAYHSILTRGASVQLVFGFEYAILMTMVLTIFIKYVLHSVDLQSENPWDNKAVYMLYTELFTGFIKVLLYMAFMTIMIKVHTFPLFAIRPMYLAMRQFKKAVTDAIMSRRAIRNMNTLYPDATPEELQAVDNVCIICREEMVTGAKRLPCNHIFHTSCLRSWFQRQQTCPTCRMDVLRASLPAQSPPPPEPADQGPPPAPHPQPLLPQPPNFPQGLLPPFPPGMFPLWPPMGPFPPVPPPPSSGEAAAPPPTSTAVSRPSGAATTTAAGTSTSAPAPGSVPGPEAGPAPGFPFPPPWMGMPLPPPFAFPPMPVPPAGFAGLTPEELRALEGHERQHLEARLQSLRNIHTLLDAAMLQINQYLTVLASLGPPRPATSVNPTEETASTVVSAAPSTSAPSSEAPTPSPGASPPIPEAEKPPAPESVGIVEELPEDGEPDAAELRRRRLQKLESPVAH
notes: SYVN1 (Hrd1), mouse cDNA from the IMAGE consortium, subcloned into pEGFP-N1; FRET donor; vector pEGFP-N1; also called SYVN1-GFP; source: HEK293T, transfected, in living cells
B2: EMC3-EGFP (natural protein, mouse, UniProt Q99KI3 1-261, looked up)
chain: MAGPELLLDSNIRLWVVLPIVIITFFVGMIRHYVSILLQSDKKLTQEQVSDSQVLIRSRVLRENGKYIPKQSFLTRKYYFNNPEDGFFKKTKRKVVPPSPMTDPTMLTDMMKGNVTNVLPMILIGGWINMTFSGFVTTKVPFPLTLRFKPMLQQGIELLTLDASWVSSASWYFLNVFGLRSIYSLILGQDNAADQSRMMQEQMTGAAMAMPADTNKAFKTEWEALELTDHQWALDDVEEELMARDLHFEGMFKKELQTSIF
notes: EMC3, mouse cDNA from the IMAGE consortium, subcloned into pEGFP-N1; FRET donor; vector pEGFP-N1; also called EMC3-GFP; source: HEK293T, transfected, in living cells
B3: Derlin1-EGFP (natural protein, mouse, UniProt Q99J56 1-251, looked up)
chain: MSDIGDWFRSIPAITRYWFAATVAVPLIGKLGIISPAYFFLWPEAFLYRFQIWRPFTATFYFPVGPGTGFLYLVNLYFLYQYSTRLEAGAFDGRPADYLFMLLFNWICIVITGLAMDMQLLMIPLIMSVLYVWAQLNRDLIVSFWFGTRFKACYLPWVILGFNYIIGGSVINELIGNLVGHLYFFLMFRYPMDLGGRNFLSTPQFLYRWLPSRRGGVSGFGVPPASMRRAADQNGGGGRHNWGQGFRLGDQ
notes: Derlin1, mouse cDNA from the IMAGE consortium, subcloned into pEGFP-N1; FRET donor; vector pEGFP-N1; source: HEK293T, transfected, in living cells
B4: EMC1-EGFP (natural protein, mouse, UniProt Q8C7X2 24-997, looked up)
chain: YEDQVGKFDWRQQYVGKIKFASLEFSPGSKKLVVATEKNVIAALNSRTGEILWRHVDKGTAEGAVDAMLVHGQDAITVSNGGRLMRSWETNIGGLNWEITLDTGSFQALGLVGLQESVRYIAVLKKTTLTLHHLSSGHLKWVEHLPESDSILYQMVYSYGSGVVWALGIVPFSHVNIVKFNVEDGEIVQQVRVWTPWLQHLTGACGVVDEAVLVCPDPSSHSLHTLALETEWELRQIPLQSPDLEFGSGFQPQVLPTQPSPVAPSRAQFFLQLSPSHYALLHYHHGAVTLLKNFPQATLVSFATTGEKTVAAVMTCRTEVQKPVSAGDGSVASFPETSGAQDSLACFNQTYTINLYLVETGRRLLDTSISFSLEQKGTRPEQLYIQVFLKKDDSVGYRALVQTQDHLQLFLQQLAGKVVLWSREESLAEVVCLEMVDLPLTGAQAELEGEFGKKAAIQDGLLGMFLKRLSSQLILLQAWTSHLWKMFYDARKPRSQIKNEINIDTLARDEFNLQKMMVTVTASGKLFGIESSSGTILWKQYLPNVKPDSSFKLMVQRTTAHFPHPPQCTLLVKDKETGMSSLFVFNPIFGKWSQVAPPVLKRPILQSLLLPVMDQDYAKVLLLVDDEYKVTAFPATRNVLRQLHELAPSIFFYLVDAEQGRLSGYQLRKDLTTELSWELTIPPEVQRVVKVKGKRSSEHVHSQGRVMGDRSVLYKSLNPNLLAVVTESTDVHHERTFIGIFLIDGVTGRIIHSSVQKKARGPVHLVHSENWVVYQYWNSKARRNELTALELYEGTEQYNATAFSSLDRPQLPQVLQQSYIFPSSISAMEATITERGITSRHLLIGLPSGAILSLPKALLDPRRPEIPTEQSREENLIPYSPDVQVHAERFINYNQTVSRMRGIYTAPSGLESTCLVVAYGLDIYQTRVYPSKQFDVLKDDYDYVLISSVLFGLVFATMITKRLAQVKLLNRAWR
notes: EMC1, mouse cDNA from the IMAGE consortium, subcloned into pEGFP-N1; FRET donor; vector pEGFP-N1; source: HEK293T, transfected, in living cells
B5: Ubac2-EGFP (natural protein, mouse, UniProt Q8R1K1 40-345, looked up)
chain: FFVYDLHAVKHDLQIWRLICGRIICLDLKDAFCSGLLIYNFRIFERRYGSRKFASFLLGSWVLSALFDFILVEAVQYSLGVTVASNLPSGFLAPVFALFVPFHCSIPRVQVAQILGPLSITNKTLIYILGLQLFTSGSYIWIVAMSGLISGMCYDRKVLQVHQVLRIPGRMAEFFSWALEPIFSSSEPTSEARVGMGATVDIQRQQRMEQLDRQLMLSQFAQVRRQRQQQGGMINWNRLFPPLRQRRNINYQDGPRSEQRASPPLEVSEEQVARLMEMGFSRGDALEALRASNNDLNVATNFLLQH
notes: Ubac2, mouse cDNA from the IMAGE consortium, subcloned into pEGFP-N1; FRET donor; vector pEGFP-N1; source: HEK293T, transfected, in living cells

One assay deals with T1, membralin-mCherry (mouse, UniProt Q8CIV2 1-574).
T1 construct: membralin (TMEM259), mouse cDNA from the IMAGE consortium, subcloned into pmCherry-N1; FRET acceptor; also called mCherry-tagged membralin; source: HEK293T, transfected, in living cells
T1 sequence (Q8CIV2 whole entry): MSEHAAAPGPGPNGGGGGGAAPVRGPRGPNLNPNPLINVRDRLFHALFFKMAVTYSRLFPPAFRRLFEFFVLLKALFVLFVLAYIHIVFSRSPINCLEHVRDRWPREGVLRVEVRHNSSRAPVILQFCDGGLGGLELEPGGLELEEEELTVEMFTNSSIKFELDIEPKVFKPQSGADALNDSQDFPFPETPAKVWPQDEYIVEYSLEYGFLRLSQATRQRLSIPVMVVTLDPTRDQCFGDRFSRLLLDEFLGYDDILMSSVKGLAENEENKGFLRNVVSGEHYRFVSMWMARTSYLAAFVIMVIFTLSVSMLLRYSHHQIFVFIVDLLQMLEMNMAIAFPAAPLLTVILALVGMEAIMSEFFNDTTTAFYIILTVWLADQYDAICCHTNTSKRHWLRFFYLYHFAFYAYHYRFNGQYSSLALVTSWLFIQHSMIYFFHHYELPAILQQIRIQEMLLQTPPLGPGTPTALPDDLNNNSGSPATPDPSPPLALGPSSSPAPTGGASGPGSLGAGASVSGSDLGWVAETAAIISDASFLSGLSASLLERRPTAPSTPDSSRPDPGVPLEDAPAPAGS
The experiment in a line: FRET or BRET; acceptor photobleaching in HEK293T co-transfected 24 h with target-EGFP (donor) and membralin-mCherry (acceptor); 10 cells, three independent experiments.
Details: not given
As for “FAM8A1-EGFP (from UniProt Q9UBU6 1-413) (natural protein)”, the FRET efficiency came to 33.9%.

Staying with this assay, now noted: partners not purified.
Molecule B1 came in with an FRET efficiency of 21.8%.

With B2, the FRET efficiency was found to be 26.3%. The molecule B3 came in with an FRET efficiency of 12.3%. On the same count and under the same terms, the value for B4 was 22.4%.

The molecule B5 showed an FRET efficiency of 33.1%.

The values are drawn from paper PMC5684335, “ER-associated degradation regulates Alzheimer’s amyloid pathology and memory function by modulating γ-secretase activity” (Nature Communications, 2017).
